Experimental data as given in patent publication EP2954934A1 (3B Pharmaceuticals GmbH, dated 2015).

How the values were obtained:
[1] = biological target: NTR1 on HT29 or NTR1-expressing HEK293 cells (UniProt P30989); test: cell-based or functional assay
[2] = biological target: human neurotensin receptor 1 (NTR1) prepared from CHO cells recombinantly expressing the human receptor (human) (UniProt P30989); test: radioligand displacement, 125I-(Tyr3-neurotensin) on human NTR1 from CHO cells
Chain of human neurotensin receptor 1 (NTR1) prepared from CHO cells recombinantly expressing the human receptor (human) (P30989 whole entry): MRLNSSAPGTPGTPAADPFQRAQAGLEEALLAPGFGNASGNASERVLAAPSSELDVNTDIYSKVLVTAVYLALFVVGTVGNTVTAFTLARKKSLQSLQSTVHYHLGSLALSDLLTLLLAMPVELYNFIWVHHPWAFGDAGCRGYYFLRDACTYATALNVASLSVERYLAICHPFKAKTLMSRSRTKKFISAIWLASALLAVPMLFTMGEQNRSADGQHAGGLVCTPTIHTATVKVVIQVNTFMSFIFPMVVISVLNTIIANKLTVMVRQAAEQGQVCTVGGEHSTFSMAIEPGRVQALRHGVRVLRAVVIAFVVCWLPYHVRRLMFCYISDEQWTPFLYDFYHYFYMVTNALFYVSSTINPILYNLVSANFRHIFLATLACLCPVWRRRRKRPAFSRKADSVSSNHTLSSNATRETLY

Chain of NTR1 on HT29 or NTR1-expressing HEK293 cells (P30989 whole entry): as above

| Substance | Agonistic Effect EC50 [nM] (functional Ca2+ mobilisation assay) [1] | Antagonistic Effect IC50 [nM] (functional Ca2+ mobilisation assay) [1] | IC50 [2] |
| --- | --- | --- | --- |
| 1206-Glutar-Ttds3-Asn-Ala-Val-Pro-Asn-Leu-Arg-Gly-Asp-Leu-Gln-Val-Leu-Ala-Gln-Lys-Val-Ala-Arg-Thr-GA (peptide) | > 50000 nM | 38 nM | 9.9 nM |
| 1206-Glutar-Ttds-Lys(1206-Glutar-Ttds)-Ttds-Asn-Ala-Val-Pro-Asn-Leu-Arg-Gly-Asp-Leu-Gln-Val-Leu-Ala- (peptide) | > 50000 nM | 12 nM | 7.5 nM |
| 1206-Glutar-Ttds-Lys(DOTA)-Ttds-GABA-Asn-Ala-Val-Pro-Asn-Leu-Arg-Gly-Asp-Leu-Gln-Val-Leu-Ala-Gln-Lys (peptide) | > 50000 nM | 18 nM | 10 nM |
